From US5750335

Molecular target: T1, MutS (Salmonella typhimurium) (UniProt P0A1Y0)
T1 sequence: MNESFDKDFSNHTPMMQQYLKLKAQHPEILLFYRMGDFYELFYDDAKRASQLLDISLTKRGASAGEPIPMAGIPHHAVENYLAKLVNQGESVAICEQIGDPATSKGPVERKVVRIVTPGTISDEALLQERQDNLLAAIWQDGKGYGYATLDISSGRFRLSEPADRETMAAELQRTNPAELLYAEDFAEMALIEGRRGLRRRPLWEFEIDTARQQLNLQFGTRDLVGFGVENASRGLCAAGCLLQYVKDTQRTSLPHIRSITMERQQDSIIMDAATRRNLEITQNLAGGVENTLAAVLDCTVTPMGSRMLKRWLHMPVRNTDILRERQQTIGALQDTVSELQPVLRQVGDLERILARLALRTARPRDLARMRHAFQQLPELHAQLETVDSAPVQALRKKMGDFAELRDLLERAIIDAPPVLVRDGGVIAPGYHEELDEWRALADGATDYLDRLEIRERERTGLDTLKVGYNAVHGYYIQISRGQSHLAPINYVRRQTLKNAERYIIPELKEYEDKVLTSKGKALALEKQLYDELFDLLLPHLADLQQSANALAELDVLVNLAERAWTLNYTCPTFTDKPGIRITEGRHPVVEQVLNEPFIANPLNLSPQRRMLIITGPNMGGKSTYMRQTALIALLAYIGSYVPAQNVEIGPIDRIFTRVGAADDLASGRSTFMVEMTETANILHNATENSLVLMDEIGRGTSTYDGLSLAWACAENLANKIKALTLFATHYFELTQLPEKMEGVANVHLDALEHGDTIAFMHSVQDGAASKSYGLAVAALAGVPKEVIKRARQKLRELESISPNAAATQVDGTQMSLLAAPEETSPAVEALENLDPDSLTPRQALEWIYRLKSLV
Experiment: pulldown
Conditions: on ice

| Substance | binding signal (fold over homoduplex) (immunoprecipitation with anti-MutS, 1 ug lambda competitor DNA) | binding signal (fold (reference)) (homoduplex control precipitated 9.6 fold less, competitor DNA) |
| --- | --- | --- |
| 1 KB AvaII-BglII M13mp8 C-A heteroduplex | 9.6 | – |
| 1 KB AvaII-BglII M13mp8 homoduplex | – | 1 |
